Data as given in patent publication US20250243261A1.
Read-outs that look alike come from different tables or passages of the source.

How the values were obtained:
[1] = molecular target: HA H7 HK16, A/Hong Kong/61/2016(H7N9) (Influenza A virus)
[2] = molecular target: HA H4 Hubei, A/swine/Hubei/06/2009(H4N1) (Influenza A virus)
[3] = molecular target: HA H2 Japan, A/Japan/305/1957(H2N2) (Influenza A virus)
[4] = molecular target: HA H5 Vietnam, A/Vietnam/1203/2004(H5N1) (Influenza A virus)
[5] = molecular target: HA H7 HK17, A/Hong Kong/125/2017(H7N9) (Influenza A virus)
[6] = molecular target: HA H7 HK16, A/Hong Kong/61/2016(H7N9) (Influenza A virus); remark: listed apart in the source
[7] = molecular target: HA H7 HK17, A/Hong Kong/125/2017(H7N9) (Influenza A virus); remark: listed apart in the source
[8] = molecular target: HA H4 Hubei, A/swine/Hubei/06/2009(H4N1) (Influenza A virus); remark: listed apart in the source
[9] = molecular target: HA H7 HK17, A/Hong Kong/125/2017(H7N9) (Influenza A virus); remark: listed apart in the source

Substance | Kd [1] [nM] | Kd [2] [nM] | other results
MEDI8852 VH M117Y Fab | 4.07 | 0.356 | –
MEDI8852 VH I24V Fab | 8.58 | 0.87 | –
MEDI8852 VL T33L Fab | 41 | 3.2 | –
MEDI8852 VL R92D Fab | 26.4 | – | –
MEDI8852 VH P75R Fab | 7.14 | 0.779 | –
MEDI8852 VH E65R Fab | 1.54 | 0.32 | Kd [3]: < 0.001 nM; Kd [4]: < 0.001 nM; Kd [5]: 0.036 nM
MEDI8852 VL T25A Fab | 16.8 | 1.45 | –
MEDI8852 VH E65R-M117Y Fab | 1.7 | 0.248 | Kd [3]: < 0.001 nM; Kd [4]: < 0.001 nM; fold improvement in Kd over wildtype [6]: 3.6 fold; fold improvement in Kd vs wildtype [7]: 10 fold; Kd [5]: 0.02 nM
MEDI8852 VH E65P Fab | 2.33 | 0.31 | Kd [3]: < 0.001 nM; Kd [4]: < 0.001 nM; Kd [5]: 0.1 nM
MEDI8852 VH S44G Fab | 7.03 | 0.596 | –
MEDI8852 UCA VH K58S-V65P/VL G95P IgG (antibody) | – | – | Kd [8]: 30 nM; Kd [9]: 5.6 nM
MEDI8852 VH T53I Fab | 10.3 | 0.747 | –
MEDI8852 VL G55A Fab | 5.11 | 0.512 | –
MEDI8852 VL L29V Fab | 80 | 4.2 | –
MEDI8852 VH D27F Fab | 9 | 0.9 | –
MEDI8852 UCA VH K58S-V65P IgG (antibody) | – | – | Kd [8]: 80 nM
MEDI8852 VH N74S Fab | 5.98 | 0.531 | –
MEDI8852 VH E65P-M117Y Fab | 2.7 | 0.36 | Kd [5]: 0.043 nM
MEDI8852 VL G95P Fab | 5.31 | 0.802 | –
